The results in this text go back to IntAct's records for PubMed 26481812.

The labels stand for the following.
B1: C-type mannose receptor 2 (Homo sapiens), Q9UBG0 (parent)
chain: MGPGRPAPAPWPRHLLRCVLLLGCLHLGRPGAPGDAALPEPNVFLIFSHGLQGCLEAQGGQVRVTPACNTSLPAQRWKWVSRNRLFNLGTMQCLGTGWPGTNTTASLGMYECDREALNLRWHCRTLGDQLSLLLGARTSNISKPGTLERGDQTRSGQWRIYGSEEDLCALPYHEVYTIQGNSHGKPCTIPFKYDNQWFHGCTSTGREDGHLWCATTQDYGKDERWGFCPIKSNDCETFWDKDQLTDSCYQFNFQSTLSWREAWASCEQQGADLLSITEIHEQTYINGLLTGYSSTLWIGLNDLDTSGGWQWSDNSPLKYLNWESDQPDNPSEENCGVIRTESSGGWQNRDCSIALPYVCKKKPNATAEPTPPDRWANVKVECEPSWQPFQGHCYRLQAEKRSWQESKKACLRGGGDLVSIHSMAELEFITKQIKQEVEELWIGLNDLKLQMNFEWSDGSLVSFTHWHPFEPNNFRDSLEDCVTIWGPEGRWNDSPCNQSLPSICKKAGQLSQGAAEEDHGCRKGWTWHSPSCYWLGEDQVTYSEARRLCTDHGSQLVTITNRFEQAFVSSLIYNWEGEYFWTALQDLNSTGSFFWLSGDEVMYTHWNRDQPGYSRGGCVALATGSAMGLWEVKNCTSFRARYICRQSLGTPVTPELPGPDPTPSLTGSCPQGWASDTKLRYCYKVFSSERLQDKKSWVQAQGACQELGAQLLSLASYEEEHFVANMLNKIFGESEPEIHEQHWFWIGLNRRDPRGGQSWRWSDGVGFSYHNFDRSRHDDDDIRGCAVLDLASLQWVAMQCDTQLDWICKIPRGTDVREPDDSPQGRREWLRFQEAEYKFFEHHSTWAQAQRICTWFQAELTSVHSQAELDFLSHNLQKFSRAQEQHWWIGLHTSESDGRFRWTDGSIINFISWAPGKPRPVGKDKKCVYMTASREDWGDQRCLTALPYICKRSNVTKETQPPDLPTTALGGCPSDWIQFLNKCFQVQGQEPQSRVKWSEAQFSCEQQEAQLVTITNPLEQAFITASLPNVTFDLWIGLHASQRDFQWVEQEPLMYANWAPGEPSGPSPAPSGNKPTSCAVVLHSPSAHFTGRWDDRSCTEETHGFICQKGTDPSLSPSPAALPPAPGTELSYLNGTFRLLQKPLRWHDALLLCESRNASLAYVPDPYTQAFLTQAARGLRTPLWIGLAGEEGSRRYSWVSEEPLNYVGWQDGEPQQPGGCTYVDVDGAWRTTSCDTKLQGAVCGVSSGPPPPRRISYHGSCPQGLADSAWIPFREHCYSFHMELLLGHKEARQRCQRAGGAVLSILDEMENVFVWEHLQSYEGQSRGAWLGMNFNPKGGTLVWQDNTAVNYSNWGPPGLGPSMLSHNSCYWIQSNSGLWRPGACTNITMGVVCKLPRAEQSSFSPSALPENPAALVVVLMAVLLLLALLTAALILYRRRQSIERGAFEGARYSRSSSSPTEATEKNILVSDMEMNEQQE

The experiment covers variants of B1. Particulars: with co1a1_rat Col1a1, P02454.
Sequence of co1a1_rat Col1a1, P02454 (P02454 whole entry): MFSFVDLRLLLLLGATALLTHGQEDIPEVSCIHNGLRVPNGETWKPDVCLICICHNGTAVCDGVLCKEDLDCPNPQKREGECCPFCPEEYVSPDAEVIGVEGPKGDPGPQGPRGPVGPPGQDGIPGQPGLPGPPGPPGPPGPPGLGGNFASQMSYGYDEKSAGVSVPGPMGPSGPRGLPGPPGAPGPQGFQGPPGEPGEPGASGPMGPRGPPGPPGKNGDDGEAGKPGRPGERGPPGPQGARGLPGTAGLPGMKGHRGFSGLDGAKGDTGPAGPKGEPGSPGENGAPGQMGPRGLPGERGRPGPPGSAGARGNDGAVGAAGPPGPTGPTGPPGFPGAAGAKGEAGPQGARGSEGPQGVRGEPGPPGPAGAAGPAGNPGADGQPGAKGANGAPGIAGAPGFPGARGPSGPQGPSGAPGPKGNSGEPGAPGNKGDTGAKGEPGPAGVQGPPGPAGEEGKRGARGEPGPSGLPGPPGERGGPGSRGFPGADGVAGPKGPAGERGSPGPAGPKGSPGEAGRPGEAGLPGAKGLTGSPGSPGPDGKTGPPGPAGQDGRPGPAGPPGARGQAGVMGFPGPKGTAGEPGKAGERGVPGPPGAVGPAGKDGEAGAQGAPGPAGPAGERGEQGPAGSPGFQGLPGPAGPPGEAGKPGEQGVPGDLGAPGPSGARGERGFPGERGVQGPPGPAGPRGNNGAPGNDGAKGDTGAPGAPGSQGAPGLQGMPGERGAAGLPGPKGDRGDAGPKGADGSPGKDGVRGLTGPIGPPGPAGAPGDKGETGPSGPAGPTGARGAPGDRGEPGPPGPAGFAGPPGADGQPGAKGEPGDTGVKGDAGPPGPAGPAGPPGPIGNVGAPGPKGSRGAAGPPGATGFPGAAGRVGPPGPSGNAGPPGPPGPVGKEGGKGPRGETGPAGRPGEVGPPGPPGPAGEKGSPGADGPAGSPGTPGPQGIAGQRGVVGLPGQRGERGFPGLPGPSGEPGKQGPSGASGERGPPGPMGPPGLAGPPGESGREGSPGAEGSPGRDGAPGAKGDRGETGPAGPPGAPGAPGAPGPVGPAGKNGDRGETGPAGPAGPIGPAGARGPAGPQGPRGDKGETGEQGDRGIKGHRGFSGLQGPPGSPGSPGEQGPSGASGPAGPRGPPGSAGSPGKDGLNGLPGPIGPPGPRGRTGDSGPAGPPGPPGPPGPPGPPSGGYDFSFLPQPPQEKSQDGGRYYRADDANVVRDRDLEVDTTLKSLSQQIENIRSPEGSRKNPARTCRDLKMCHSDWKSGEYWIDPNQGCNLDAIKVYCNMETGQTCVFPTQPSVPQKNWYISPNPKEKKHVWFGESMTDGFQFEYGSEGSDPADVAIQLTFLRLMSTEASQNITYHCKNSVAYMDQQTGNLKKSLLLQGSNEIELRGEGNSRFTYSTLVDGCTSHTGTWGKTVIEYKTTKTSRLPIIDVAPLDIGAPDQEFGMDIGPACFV
Take Y193A: the “effect of a mutation on the interaction” value is on record as “disrupting interaction strength”.

On to Y292N;S294T, for which the “effect of a mutation on the interaction” value was “decreasing interaction strength”.

Regarding Y219A, the “effect of a mutation on the interaction” value was “disrupting interaction strength”.

Regarding R206A;D208A, the “effect of a mutation on the interaction” value was “disrupting interaction strength”.

For the variant Q179N;N181T, the “effect of a mutation on the interaction” value is reported as “disrupting interaction strength”.
